For assay [1], the target named is p110γ-p101 complex (human p110γ, porcine p101) (human | porcine (Sus scrofa), UniProt P48736 1-1102; O02696 1-877). Description: BLI.
In assay [2] the target is p110γ-p84 complex (human p110γ, mouse p84) (human | mouse, UniProt P48736 1-1102; Q3U6Q4 1-756). Description: BLI. (In BLI a coated tip is dipped into the sample, and binding shifts an interference pattern.)

Kd data for 1 molecule are collected here from publication doi:10.1101/2023.04.12.536585 (2023).

Chain of p110γ-p101 complex (human p110γ, porcine p101) (P48736 whole entry, chain 1 of 2): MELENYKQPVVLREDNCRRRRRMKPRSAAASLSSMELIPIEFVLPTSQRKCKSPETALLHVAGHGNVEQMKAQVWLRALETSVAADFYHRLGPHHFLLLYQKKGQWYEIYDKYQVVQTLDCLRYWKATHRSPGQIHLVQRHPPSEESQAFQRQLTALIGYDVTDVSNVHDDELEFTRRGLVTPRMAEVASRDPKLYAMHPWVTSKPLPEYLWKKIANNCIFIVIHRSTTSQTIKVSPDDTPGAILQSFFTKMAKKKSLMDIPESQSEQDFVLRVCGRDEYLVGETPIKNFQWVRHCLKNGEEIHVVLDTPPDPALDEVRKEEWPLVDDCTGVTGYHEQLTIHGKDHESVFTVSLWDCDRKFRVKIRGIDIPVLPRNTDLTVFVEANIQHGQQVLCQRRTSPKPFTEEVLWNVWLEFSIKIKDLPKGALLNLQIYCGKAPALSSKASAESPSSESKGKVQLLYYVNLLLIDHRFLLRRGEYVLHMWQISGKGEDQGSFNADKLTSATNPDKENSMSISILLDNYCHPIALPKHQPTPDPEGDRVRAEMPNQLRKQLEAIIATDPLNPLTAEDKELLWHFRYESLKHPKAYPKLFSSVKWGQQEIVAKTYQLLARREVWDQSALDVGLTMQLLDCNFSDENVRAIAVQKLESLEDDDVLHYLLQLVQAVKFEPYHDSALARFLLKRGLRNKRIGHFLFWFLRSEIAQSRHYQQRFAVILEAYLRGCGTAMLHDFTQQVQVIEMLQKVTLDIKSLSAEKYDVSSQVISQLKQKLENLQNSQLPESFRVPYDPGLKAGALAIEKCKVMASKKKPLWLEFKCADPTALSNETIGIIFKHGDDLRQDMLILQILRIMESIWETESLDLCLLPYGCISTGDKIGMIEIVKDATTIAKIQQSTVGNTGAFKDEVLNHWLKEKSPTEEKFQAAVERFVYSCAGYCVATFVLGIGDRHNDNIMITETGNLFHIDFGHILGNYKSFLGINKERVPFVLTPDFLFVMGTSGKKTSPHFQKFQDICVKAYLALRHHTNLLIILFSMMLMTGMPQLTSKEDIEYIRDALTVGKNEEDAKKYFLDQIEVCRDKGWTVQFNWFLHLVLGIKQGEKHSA
Chain of p110γ-p101 complex (human p110γ, porcine p101) (O02696 whole entry, chain 2 of 2): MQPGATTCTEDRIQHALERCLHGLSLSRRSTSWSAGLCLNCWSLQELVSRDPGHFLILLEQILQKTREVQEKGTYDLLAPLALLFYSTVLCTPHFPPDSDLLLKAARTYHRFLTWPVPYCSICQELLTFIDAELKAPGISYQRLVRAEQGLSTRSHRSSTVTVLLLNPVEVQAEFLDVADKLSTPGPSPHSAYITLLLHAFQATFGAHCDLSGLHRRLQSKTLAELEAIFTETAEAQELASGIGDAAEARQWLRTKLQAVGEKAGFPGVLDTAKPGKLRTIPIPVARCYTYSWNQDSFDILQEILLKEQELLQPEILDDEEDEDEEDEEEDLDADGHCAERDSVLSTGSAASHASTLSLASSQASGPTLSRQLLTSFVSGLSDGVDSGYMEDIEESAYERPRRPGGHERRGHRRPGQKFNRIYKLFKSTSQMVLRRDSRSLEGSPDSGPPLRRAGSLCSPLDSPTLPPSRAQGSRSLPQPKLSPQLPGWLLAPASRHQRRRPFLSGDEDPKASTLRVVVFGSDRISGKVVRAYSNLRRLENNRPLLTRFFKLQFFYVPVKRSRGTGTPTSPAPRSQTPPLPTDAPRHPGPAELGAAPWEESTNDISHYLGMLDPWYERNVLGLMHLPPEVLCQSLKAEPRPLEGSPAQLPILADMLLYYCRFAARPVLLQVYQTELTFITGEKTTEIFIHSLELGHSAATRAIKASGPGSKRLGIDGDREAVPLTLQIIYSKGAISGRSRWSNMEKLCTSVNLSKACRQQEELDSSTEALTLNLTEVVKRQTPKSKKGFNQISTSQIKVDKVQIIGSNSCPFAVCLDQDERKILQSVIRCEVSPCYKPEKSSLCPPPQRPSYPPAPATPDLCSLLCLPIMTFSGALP
Chain of p110γ-p84 complex (human p110γ, mouse p84) (P48736 whole entry, chain 1 of 2): as the sequence (P48736 whole entry, chain 1 of 2) above
Chain of p110γ-p84 complex (human p110γ, mouse p84) (Q3U6Q4 whole entry, chain 2 of 2): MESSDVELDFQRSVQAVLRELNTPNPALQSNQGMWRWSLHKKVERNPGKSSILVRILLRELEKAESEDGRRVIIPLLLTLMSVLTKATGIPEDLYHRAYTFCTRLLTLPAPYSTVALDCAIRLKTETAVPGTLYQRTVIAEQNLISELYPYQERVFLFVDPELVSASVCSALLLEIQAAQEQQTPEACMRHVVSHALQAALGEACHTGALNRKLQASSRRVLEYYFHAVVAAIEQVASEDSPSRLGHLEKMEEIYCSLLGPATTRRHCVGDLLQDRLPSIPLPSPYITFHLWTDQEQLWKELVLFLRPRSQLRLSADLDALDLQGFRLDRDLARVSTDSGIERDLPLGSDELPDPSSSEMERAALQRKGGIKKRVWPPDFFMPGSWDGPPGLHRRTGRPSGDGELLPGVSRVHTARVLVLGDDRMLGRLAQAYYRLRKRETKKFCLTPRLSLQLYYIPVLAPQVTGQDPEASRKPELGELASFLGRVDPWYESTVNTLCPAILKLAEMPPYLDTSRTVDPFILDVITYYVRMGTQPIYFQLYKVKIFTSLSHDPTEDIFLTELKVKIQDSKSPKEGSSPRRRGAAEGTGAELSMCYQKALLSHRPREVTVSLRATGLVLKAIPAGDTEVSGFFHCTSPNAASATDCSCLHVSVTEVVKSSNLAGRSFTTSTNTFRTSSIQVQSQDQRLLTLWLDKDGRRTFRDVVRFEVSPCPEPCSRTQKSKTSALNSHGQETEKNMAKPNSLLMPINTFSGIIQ

B1: Nanobody NB7-PIK3CG (VHH)
VHH: QVQLVESGGGLVQPGGSLRLSCAASGSIFSINAMGWYRQAPGKQRELVAHITSGGSTNYADSVKGRFTISRDNAKNTVYLQMNSLKPEDTAVYYCNEAGDPFLGSTWNGPPAFGSWGQGTQVTVSS
For B1, the Kd in assay [1] is 3.1 nM; in assay [2], 3 nM.

Usually Kd stands for the free concentration of one partner at which half of the binding sites on the other are occupied at equilibrium, for simple one-to-one binding.
